Reference: article PMC10397247
Where two headings read alike, the source gives them in different places.

How the values were obtained:
4H492-bA = molecular target: T1, 4H492-bA; experiment: two-hybrid library CCNG1;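 further: natural log of median RNA to DNA barcode read ratio; higher means stronger binding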
T1 chain: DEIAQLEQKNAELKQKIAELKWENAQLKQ

4H741-bA = molecular target: T2, 4H741-bA; experiment: two-hybrid library CCNG1;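 further: natural log of median RNA to DNA barcode read ratio; higher means stronger binding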
T2 chain: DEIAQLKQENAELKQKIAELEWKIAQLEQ

4H348-bA = molecular target: T3, 4H348-bA; experiment: two-hybrid library CCNG1;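 further: natural log of median RNA to DNA barcode read ratio; higher means stronger binding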
T3 chain: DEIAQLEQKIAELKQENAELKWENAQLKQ

4H40-bA = molecular target: T4, 4H40-bA; experiment: two-hybrid library CCNG1;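 further: natural log of median RNA to DNA barcode read ratio; higher means stronger binding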
T4 chain: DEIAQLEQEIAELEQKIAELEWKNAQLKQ

4H3057-bA = molecular target: T5, 4H3057-bA; experiment: two-hybrid library CCNG1
T5 chain: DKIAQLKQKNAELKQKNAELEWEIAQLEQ

4H3277-bA = molecular target: T6, 4H3277-bA; experiment: two-hybrid library CCNG1
T6 chain: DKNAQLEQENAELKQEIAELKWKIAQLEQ

4H477-bA = molecular target: T7, 4H477-bA; experiment: two-hybrid library CCNG1
T7 chain: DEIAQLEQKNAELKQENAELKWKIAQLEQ

4H319-bA = molecular target: T8, 4H319-bA; experiment: two-hybrid library CCNG1
T8 chain: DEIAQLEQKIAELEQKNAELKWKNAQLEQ

4H348-bN = molecular target: T9, 4H348-bN; experiment: two-hybrid library CCNG1
T9 chain: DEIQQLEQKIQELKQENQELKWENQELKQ

4H741-bN = molecular target: T10, 4H741-bN; experiment: two-hybrid library CCNG1
T10 chain: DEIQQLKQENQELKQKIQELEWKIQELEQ

4H319-bN = molecular target: T11, 4H319-bN; experiment: two-hybrid library CCNG1
T11 chain: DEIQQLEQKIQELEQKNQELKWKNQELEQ

4H3277-bN = molecular target: T12, 4H3277-bN; experiment: two-hybrid library CCNG1
T12 chain: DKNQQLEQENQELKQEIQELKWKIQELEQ

4H3057-bN = molecular target: T13, 4H3057-bN; experiment: two-hybrid library CCNG1
T13 chain: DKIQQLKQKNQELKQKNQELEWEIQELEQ

4H492-bN = molecular target: T14, 4H492-bN; experiment: two-hybrid library CCNG1
T14 chain: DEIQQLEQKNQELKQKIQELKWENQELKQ

4H477-bN = molecular target: T15, 4H477-bN; experiment: two-hybrid library CCNG1
T15 chain: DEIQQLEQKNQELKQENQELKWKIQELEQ

4H40-bN = molecular target: T16, 4H40-bN; experiment: two-hybrid library CCNG1
T16 chain: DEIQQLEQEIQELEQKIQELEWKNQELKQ

O7-bN = molecular target: T17, O7-bN; experiment: two-hybrid library CCNG1
T17 chain: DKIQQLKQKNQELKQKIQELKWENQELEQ

O8-bN = molecular target: T18, O8-bN; experiment: two-hybrid library CCNG1
T18 chain: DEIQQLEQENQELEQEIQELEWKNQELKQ

O9-bN = molecular target: T19, O9-bN; experiment: two-hybrid library CCNG1
T19 chain: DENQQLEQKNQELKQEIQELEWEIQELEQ

O8-bH = molecular target: T20, O8-bH; experiment: two-hybrid library CCNG1
T20 chain: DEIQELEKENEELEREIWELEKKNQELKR

O9-bH = molecular target: T21, O9-bH; experiment: two-hybrid library CCNG1
T21 chain: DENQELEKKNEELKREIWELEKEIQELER

O7-bH = molecular target: T22, O7-bH; experiment: two-hybrid library CCNG1
T22 chain: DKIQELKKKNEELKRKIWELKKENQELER

4H3619-AA = molecular target: T23, 4H3619-AA; experiment: two-hybrid library CCmax; settings: mean of both orientations
T23 chain: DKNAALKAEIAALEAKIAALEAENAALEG

4H3777-AA = molecular target: T24, 4H3777-AA; experiment: two-hybrid library CCmax; settings: mean of both orientations
T24 chain: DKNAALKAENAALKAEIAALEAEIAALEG

4H3974-AA = molecular target: T25, 4H3974-AA; experiment: two-hybrid library CCmax; settings: mean of both orientations
T25 chain: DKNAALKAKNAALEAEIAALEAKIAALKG

4H3049-AA = molecular target: T26, 4H3049-AA; experiment: two-hybrid library CCmax; settings: mean of both orientations
T26 chain: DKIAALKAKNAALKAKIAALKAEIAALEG

4H446-AA = molecular target: T27, 4H446-AA; experiment: two-hybrid library CCmax; settings: mean of both orientations
T27 chain: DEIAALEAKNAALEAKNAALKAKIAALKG

4H2903-AA = molecular target: T28, 4H2903-AA; experiment: two-hybrid library CCmax; settings: mean of both orientations
T28 chain: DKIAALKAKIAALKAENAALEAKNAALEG

4H2961-AA = molecular target: T29, 4H2961-AA; experiment: two-hybrid library CCmax; settings: mean of both orientations
T29 chain: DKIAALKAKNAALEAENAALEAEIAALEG

4H3094-AA = molecular target: T30, 4H3094-AA; experiment: two-hybrid library CCmax; settings: mean of both orientations
T30 chain: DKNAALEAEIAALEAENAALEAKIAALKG

4H3629-AA = molecular target: T31, 4H3629-AA; experiment: two-hybrid library CCmax; settings: mean of both orientations
T31 chain: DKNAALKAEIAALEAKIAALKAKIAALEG

4H341-AA = molecular target: T32, 4H341-AA; experiment: two-hybrid library CCmax; settings: mean of both orientations
T32 chain: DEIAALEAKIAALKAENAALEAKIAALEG

4H324-AA = molecular target: T33, 4H324-AA; experiment: two-hybrid library CCmax; settings: mean of both orientations
T33 chain: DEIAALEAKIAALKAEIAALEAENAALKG

4H380-AA = molecular target: T34, 4H380-AA; experiment: two-hybrid library CCmax; settings: mean of both orientations
T34 chain: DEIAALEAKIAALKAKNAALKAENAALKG

4H2760-AA = molecular target: T35, 4H2760-AA; experiment: two-hybrid library CCmax
T35 chain: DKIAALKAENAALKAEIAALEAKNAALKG

4H3915-AA = molecular target: T36, 4H3915-AA; experiment: two-hybrid library CCmax; settings: mean of both orientations
T36 chain: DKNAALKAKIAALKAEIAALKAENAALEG

4H63-AA = molecular target: T37, 4H63-AA; experiment: two-hybrid library CCmax; settings: mean of both orientations
T37 chain: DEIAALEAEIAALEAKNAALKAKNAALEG

4H3449-AA = molecular target: T38, 4H3449-AA; experiment: two-hybrid library CCmax; settings: mean of both orientations
T38 chain: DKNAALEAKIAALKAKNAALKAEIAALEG

4H2774-AA = molecular target: T39, 4H2774-AA; experiment: two-hybrid library CCmax; settings: mean of both orientations
T39 chain: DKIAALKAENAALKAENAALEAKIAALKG

4H2947-AA = molecular target: T40, 4H2947-AA; experiment: two-hybrid library CCmax; settings: mean of both orientations
T40 chain: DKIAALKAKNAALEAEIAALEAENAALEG

4H432-AA = molecular target: T41, 4H432-AA; experiment: two-hybrid library CCmax; settings: mean of both orientations
T41 chain: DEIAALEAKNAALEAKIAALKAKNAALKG

APC7099-AA = molecular target: T42, APC7099-AA; experiment: two-hybrid library CCmax; settings: mean of both orientations
T42 chain: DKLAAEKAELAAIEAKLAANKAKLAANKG

APC9319-AA = molecular target: T43, APC9319-AA; experiment: two-hybrid library CCmax; settings: mean of both orientations
T43 chain: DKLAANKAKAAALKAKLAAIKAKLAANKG

APC6108-AA = molecular target: T44, APC6108-AA; experiment: two-hybrid library CCmax; settings: mean of both orientations
T44 chain: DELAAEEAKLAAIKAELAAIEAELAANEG

APC5383-AA = molecular target: T45, APC5383-AA; experiment: two-hybrid library CCmax; settings: mean of both orientations
T45 chain: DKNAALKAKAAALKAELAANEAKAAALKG

APC3645-AA = molecular target: T46, APC3645-AA; experiment: two-hybrid library CCmax; settings: mean of both orientations
T46 chain: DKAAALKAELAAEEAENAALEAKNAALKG

APC4436-AA = molecular target: T47, APC4436-AA; experiment: two-hybrid library CCmax; settings: mean of both orientations
T47 chain: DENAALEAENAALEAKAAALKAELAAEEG

APC9096-AA = molecular target: T48, APC9096-AA; experiment: two-hybrid library CCmax; settings: mean of both orientations
T48 chain: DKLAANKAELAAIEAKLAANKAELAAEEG

APC4011-AA = molecular target: T49, APC4011-AA; experiment: two-hybrid library CCmax; settings: mean of both orientations
T49 chain: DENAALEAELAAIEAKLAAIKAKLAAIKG

APC2405-AA = molecular target: T50, APC2405-AA; experiment: two-hybrid library CCmax
T50 chain: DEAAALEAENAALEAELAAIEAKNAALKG

APC4264-AA = molecular target: T51, APC4264-AA; experiment: two-hybrid library CCmax; settings: mean of both orientations
T51 chain: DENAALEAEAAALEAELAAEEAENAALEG

APC8910-AA = molecular target: T52, APC8910-AA; experiment: two-hybrid library CCmax; settings: mean of both orientations
T52 chain: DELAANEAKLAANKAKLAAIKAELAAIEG

APC8191-AA = molecular target: T53, APC8191-AA; experiment: two-hybrid library CCmax; settings: mean of both orientations
T53 chain: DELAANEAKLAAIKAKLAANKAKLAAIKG

B1: 4H3057-bA (peptide)
chain: DKIAQLKQKNAELKQKNAELEWEIAQLEQ
interaction score (4H492-bA): -1.16 | interaction score (4H741-bA): -1.38 | interaction score (4H348-bA): -1.57 | interaction score (4H40-bA): -1.17 | interaction score (4H3057-bA): -0.859 | interaction score (4H3277-bA): -1.24 | interaction score (4H477-bA): -1.12 | interaction score (4H319-bA): -1.24

B2: 4H3057-bN (peptide)
chain: DKIQQLKQKNQELKQKNQELEWEIQELEQ
interaction score (4H348-bN): -1.34 | interaction score (4H741-bN): -0.673 | interaction score (4H319-bN): -1.2 | interaction score (4H3277-bN): -0.965 | interaction score (4H3057-bN): -1.22 | interaction score (4H492-bN): -1.18 | interaction score (4H477-bN): -2.69 | interaction score (4H40-bN): -1.17

B3: O7-bN (peptide)
chain: DKIQQLKQKNQELKQKIQELKWENQELEQ
interaction score (O7-bN): -1.44 | interaction score (O8-bN): 0.737 | interaction score (O9-bN): -1.53

B4: O6-bH (peptide)
chain: DKNQELKKKIEELKRENWELEKKIQELKR
interaction score (O8-bH): 0.914 | interaction score (O9-bH): -0.446 | interaction score (O7-bH): 0.89

B5: 4H2760-AA (peptide)
chain: DKIAALKAENAALKAEIAALEAKNAALKG
interaction score (4H3619-AA): -1.77 | interaction score (4H3777-AA): -0.779 | interaction score (4H3974-AA): -1.69 | interaction score (4H3049-AA): 1.62 | interaction score (4H446-AA): -1.49 | interaction score (4H2903-AA): -1.32 | interaction score (4H2961-AA): -1.97 | interaction score (4H3094-AA): 2.17 | interaction score (4H3629-AA): -1.14 | interaction score (4H341-AA): -0.788 | interaction score (4H324-AA): -1.09 | interaction score (4H380-AA): -1.48 | interaction score (4H2760-AA): 0.876 | interaction score (4H3915-AA): -1.44 | interaction score (4H63-AA): -1.64 | interaction score (4H3449-AA): -1.27 | interaction score (4H2774-AA): -1.29 | interaction score (4H2947-AA): 0.202 | interaction score (4H432-AA): -0.454

B6: APC2405-AA (peptide)
chain: DEAAALEAENAALEAELAAIEAKNAALKG
interaction score (APC7099-AA): -1.31 | interaction score (APC9319-AA): -1.81 | interaction score (APC6108-AA): -1.24 | interaction score (APC5383-AA): -1.52 | interaction score (APC3645-AA): -1.29 | interaction score (APC4436-AA): -1.04 | interaction score (APC9096-AA): -1.39 | interaction score (APC4011-AA): -1.01 | interaction score (APC2405-AA): -1.47 | interaction score (APC4264-AA): -1.55 | interaction score (APC8910-AA): -1.63 | interaction score (APC8191-AA): 0.786

B7: O7-bH (peptide)
chain: DKIQELKKKNEELKRKIWELKKENQELER
interaction score (O8-bH): 1.5 | interaction score (O9-bH): 0.59 | interaction score (O7-bH): -0.477

B8: O5-bH (peptide)
chain: DENQELEKEIEELERKNWELKKEIQELER
interaction score (O8-bH): -0.103 | interaction score (O9-bH): -0.548 | interaction score (O7-bH): 0.921

B9: O5-bN (peptide)
chain: DENQQLEQEIQELEQKNQELKWEIQELEQ
interaction score (O7-bN): -0.471 | interaction score (O8-bN): -0.445 | interaction score (O9-bN): -1.42

B10: APC232-AA (peptide)
chain: DELAAIEAEAAALEAKAAALKAEAAALEG
interaction score (APC7099-AA): -1.68 | interaction score (APC9319-AA): -1.47 | interaction score (APC6108-AA): -1.6 | interaction score (APC5383-AA): -2.15 | interaction score (APC3645-AA): -1.5 | interaction score (APC4436-AA): -1.65 | interaction score (APC9096-AA): -1.8 | interaction score (APC4011-AA): -1.21 | interaction score (APC2405-AA; mean of both orientations): -1.6 | interaction score (APC4264-AA): -1.93 | interaction score (APC8910-AA): -2.1 | interaction score (APC8191-AA): -2.34

B11: O6-bN (peptide)
chain: DKNQQLKQKIQELKQENQELEWKIQELKQ
interaction score (O7-bN): -0.589 | interaction score (O8-bN): -0.754 | interaction score (O9-bN): -1.38
